Experimental findings from patent publication US20240409659A1 are described below.

Targets include Human FcγRIIIB (human) (UniProt O75015); Human FcRn (human) (UniProt P55899); Human FcγRI (human) (UniProt P12314); Human FcγRIIB (human) (UniProt P31994); Human FcγRIIA (human) (UniProt P12318).
The target of experiment [1] is Human FcγRIIIA-F158 (human) (UniProt P08637).

Take control IgG (7101+7103) (antibody): the kon with Human FcγRIIIB (human) came to 128000 M⁻¹ s⁻¹; with Human FcRn (human), 1.98e+06 M⁻¹ s⁻¹; with Human FcγRI (human), 289000 M⁻¹ s⁻¹; with Human FcγRIIB (human) it was 124000 M⁻¹ s⁻¹; with Human FcγRIIA (human) it was 300000 M⁻¹ s⁻¹; in experiment [1] it was 880000 M⁻¹ s⁻¹.
